# Reference: PMC6083498, “F-CphI represents a new homing endonuclease family using the Endo VII catalytic motif”
# Residue numbers refer to the chain shown, from its start.
# T1: F-CphI C84S (cyanophage S-PM2, UniProt Q7Y4H4 1-142, C84S)
# T1 sequence: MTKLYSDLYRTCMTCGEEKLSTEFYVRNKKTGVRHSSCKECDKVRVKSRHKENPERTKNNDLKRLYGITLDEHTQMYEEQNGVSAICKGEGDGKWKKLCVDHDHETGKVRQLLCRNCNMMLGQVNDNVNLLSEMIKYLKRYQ
# T2: F-CphI N118D (cyanophage S-PM2, UniProt Q7Y4H4 1-142, N118D)
# T2 sequence: T1 sequence with S84C, N118D
# B1: SBM4-60Top duplex (dsDNA)
# DNA 1: TGGTCTGGGTATGGAAGTGATGCACGAGCGCAACGCTCACAACTTCCCTCTCGACCTTGC
# DNA 2: GCAAGGTCGAGAGGGAAGTTGTGAGCGTTGCGCTCGTGCATCACTTCCATACCCAGACCA
# How the values were obtained:
# F-CphI C84S = target: T1, F-CphI C84S; experiment: EMSA; no Mg2+ added; EMSA: 10 mM Tris-HCl pH 8.0, 2% glycerol, 2 ug/ml poly-dIdC, 2 ug/ml BSA, 0.2 mM DTT, on ice 15 min, 2 nM labeled DNA; 8% native PAGE in 1X TBE; conditions: protein: recombinant; tags: C-terminal Myc-His; label: 5'-32P on top strand; blunt
# F-CphI N118D = target: T2, F-CphI N118D; experiment: as above; conditions: protein: recombinant; tags: C-terminal Myc-His; label: 5'-32P on top strand; blunt
binder,measurement,setting,value
B1,binding result,F-CphI C84S,no binding
same,binding result,F-CphI N118D,no binding
